Substitutions are numbered along the chain they refer to.
How the values were obtained:
StXPB-Bax1^ΔC = molecular target: T1, StXPB-Bax1^ΔC (Sulfurisphaera tokodaii, UniProt Q970I2); details: phosphate in the ATP-binding site of XPB, DNA-free heterodimer; NH4-citrate pH 7.5, PEG3350
T1 construct: gene xpb2

StXPB [1] = molecular target: T2, StXPB (Sulfurisphaera tokodaii, UniProt Q970I2 2-439); experiment: EMSA; stable complex at high protein:DNA ratio; EMSA: 25 mM Tris-Cl pH 7.5, 100 mM NaCl, 5% glycerol, 1 mM DTT, room temperature 40 min; 0.8 uM forked DNA or 0.3 uM bubble DNA; 4% TBE native gel, ethidium bromide; details: protein: recombinant; tags: N-terminal His8 (PreScission; removed); 3 nt mismatch bubble
T2 sequence: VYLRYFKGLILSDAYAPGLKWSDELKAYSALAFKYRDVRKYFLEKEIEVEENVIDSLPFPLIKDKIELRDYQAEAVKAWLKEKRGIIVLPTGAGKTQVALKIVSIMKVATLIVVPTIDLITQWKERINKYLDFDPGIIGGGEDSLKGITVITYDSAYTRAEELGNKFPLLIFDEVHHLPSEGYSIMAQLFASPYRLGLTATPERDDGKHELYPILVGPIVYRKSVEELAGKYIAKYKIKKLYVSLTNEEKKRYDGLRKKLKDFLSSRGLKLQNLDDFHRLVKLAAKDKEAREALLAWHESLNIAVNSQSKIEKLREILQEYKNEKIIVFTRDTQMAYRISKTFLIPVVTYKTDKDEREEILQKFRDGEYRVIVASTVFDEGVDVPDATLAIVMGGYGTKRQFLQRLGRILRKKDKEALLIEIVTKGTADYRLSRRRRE

StXPB [2] = molecular target: T2, StXPB; experiment: EMSA; stable complex; EMSA: 25 mM Tris-Cl pH 7.5, 100 mM NaCl, 5% glycerol, 1 mM DTT, room temperature 40 min; 0.8 uM forked DNA or 0.3 uM bubble DNA; 4% TBE native gel, ethidium bromide; details: protein: recombinant, tags: N-terminal His8 (PreScission; removed)
StXPB [3] = molecular target: T2, StXPB; experiment: EMSA; lower affinity than with Bax1; EMSA: 25 mM Tris-Cl pH 7.5, 100 mM NaCl, 5% glycerol, 1 mM DTT, room temperature 40 min; 0.8 uM forked DNA or 0.3 uM bubble DNA; 4% TBE native gel, ethidium bromide; details: protein: recombinant; tags: N-terminal His8 (PreScission; removed); fork: 22 bp duplex, 10 nt arms

T1 sequence (Q970I1 2-373 partner, one chain of several): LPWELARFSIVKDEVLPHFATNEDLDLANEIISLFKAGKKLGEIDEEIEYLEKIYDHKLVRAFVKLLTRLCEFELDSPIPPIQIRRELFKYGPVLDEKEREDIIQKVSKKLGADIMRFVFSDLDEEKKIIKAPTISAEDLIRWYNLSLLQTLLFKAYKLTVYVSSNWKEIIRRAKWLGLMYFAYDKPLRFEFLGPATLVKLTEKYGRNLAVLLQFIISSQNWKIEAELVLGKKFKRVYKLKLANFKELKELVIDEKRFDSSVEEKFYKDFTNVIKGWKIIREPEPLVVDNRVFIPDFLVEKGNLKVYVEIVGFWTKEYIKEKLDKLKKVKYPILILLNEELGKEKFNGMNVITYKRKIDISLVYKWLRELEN

O=P(O)(O)O [phosphate ion]
X-ray crystallography, 2.96 Å (StXPB-Bax1^ΔC): the ATP binding site of XPB contains a bound phosphate ion

B1: bubble-3 DNA (dsDNA)
DNA 1: TAGTCACAGCTGATTTTGCTCTGCTCCATAGT
DNA 2: ACTATGGAGCAGAGCTTTATCAGCTGTGACTA
binding result (StXPB [1]): binds

B2: bubble-4 DNA (dsDNA)
DNA 1: B1 DNA 1 with G18T
DNA 2: B1 DNA 2 with C15T
binding result (StXPB [2]; 4 nt mismatch bubble): binds

B3: bubble-5 DNA (dsDNA)
DNA 1: B1 DNA 1 with G18T
DNA 2: B1 DNA 2 with C15T, A19T
binding result (StXPB [2]; 32 nt strands, blunt, internal 5 nt T:T mismatch bubble): binds

B4: forked DNA (dsDNA)
DNA 1: B1 DNA 1 with T16G, T17C
DNA 2: TGATACTTCGAGAGCGCAATCAGCTGTGACTA
binding result (StXPB [3]): binds

Source: article PMC7672443, “Structural basis of the XPB helicase–Bax1 nuclease complex interacting with the repair bubble DNA” (Nucleic Acids Research, 2020)
